Test results taken from patent US20130011378A1, “Stable formulations of a hyaluronan-degrading enzyme” (priority 2011, published 2013).

Experiment: RP-HPLC: insulin apparent solubility / percent recovery
Settings: 7 days at 2-8° C.
In short: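 Vial samples withdrawn at each time point, centrifuged, held at 4 °C, run in duplicate by RP-HPLC. Apparent solubility = combined insulin main and desamido peak areas as percent versus standards/initial formulation; purity = main insulin peak as percent of all insulin species.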

Insulin Aspart
Solubility of Insulin Aspart, % remaining of the original concentration (0.2% methylparaben + […] m-cresol, pH 6.6, NaCl 50 mM): 57.7%
Solubility of Insulin Aspart, % remaining of the original concentration (0.2% methylparaben + […] m-cresol, pH 6.6, NaCl 80 mM): 32.1%
Solubility of Insulin Aspart, % remaining of the original concentration (0.2% methylparaben + […] m-cresol, pH 6.6, NaCl 110 mM): 21.1%
Solubility of Insulin Aspart, % remaining of the original concentration (0.2% methylparaben + […] m-cresol, pH 6.6, NaCl 140 mM): 14.7%
Solubility of Insulin Aspart, % remaining of the original concentration (0.2% methylparaben + […] m-cresol, pH 6.8, NaCl 50 mM): 97.2%
Solubility of Insulin Aspart, % remaining of the original concentration (0.2% methylparaben + […] m-cresol, pH 6.8, NaCl 80 mM): 84.1%
Solubility of Insulin Aspart, % remaining of the original concentration (0.2% methylparaben + […] m-cresol, pH 6.8, NaCl 110 mM): 54.2%
Solubility of Insulin Aspart, % remaining of the original concentration (0.2% methylparaben + […] m-cresol, pH 6.8, NaCl 140 mM): 32.2%
Solubility of Insulin Aspart, % remaining of the original concentration (0.2% methylparaben + […] m-cresol, pH 7.0, NaCl 50 mM): 98.7%
Solubility of Insulin Aspart, % remaining of the original concentration (0.2% methylparaben + […] m-cresol, pH 7.0, NaCl 80 mM): 100.2%
Solubility of Insulin Aspart, % remaining of the original concentration (0.2% methylparaben + […] m-cresol, pH 7.0, NaCl 110 mM): 96.3%
Solubility of Insulin Aspart, % remaining of the original concentration (0.2% methylparaben + […] m-cresol, pH 7.0, NaCl 140 mM): 67.9%
Solubility of Insulin Aspart, % remaining of the original concentration (0.2% methylparaben + […] m-cresol, pH 7.2, NaCl 50 mM): 99.0%
Solubility of Insulin Aspart, % remaining of the original concentration (0.2% methylparaben + […] m-cresol, pH 7.2, NaCl 80 mM): 100.2%
Solubility of Insulin Aspart, % remaining of the original concentration (0.2% methylparaben + […] m-cresol, pH 7.2, NaCl 110 mM): 99.5%
Solubility of Insulin Aspart, % remaining of the original concentration (0.2% methylparaben + […] m-cresol, pH 7.2, NaCl 140 mM): 101.6%
Solubility of Insulin Aspart, % remaining of the original concentration (0.2% methylparaben + […] m-cresol, pH 7.4, NaCl 50 mM): 99.1%
Solubility of Insulin Aspart, % remaining of the original concentration (0.2% methylparaben + […] m-cresol, pH 7.4, NaCl 80 mM): 100.5%
Solubility of Insulin Aspart, % remaining of the original concentration (0.2% methylparaben + […] m-cresol, pH 7.4, NaCl 110 mM): 99.6%
Solubility of Insulin Aspart, % remaining of the original concentration (0.2% methylparaben + […] m-cresol, pH 7.4, NaCl 140 mM): 99.6%
Solubility of Insulin Aspart, % remaining of the original concentration (0.2% methylparaben + […] m-cresol, pH 7.6, NaCl 50 mM): 99.3%
Solubility of Insulin Aspart, % remaining of the original concentration (0.2% methylparaben + […] m-cresol, pH 7.6, NaCl 80 mM): 100.6%
Solubility of Insulin Aspart, % remaining of the original concentration (0.2% methylparaben + […] m-cresol, pH 7.6, NaCl 110 mM): 99.8%
Solubility of Insulin Aspart, % remaining of the original concentration (0.2% methylparaben + […] m-cresol, pH 7.6, NaCl 140 mM): 99.8%
Solubility of Insulin Aspart, % remaining of the original concentration (0.2% phenol + […] m-cresol, pH 6.6, NaCl 50 mM): 91.8%
Solubility of Insulin Aspart, % remaining of the original concentration (0.2% phenol + […] m-cresol, pH 6.6, NaCl 80 mM): 59.2%
Solubility of Insulin Aspart, % remaining of the original concentration (0.2% phenol + […] m-cresol, pH 6.6, NaCl 110 mM): 58.0%
Solubility of Insulin Aspart, % remaining of the original concentration (0.2% phenol + […] m-cresol, pH 6.6, NaCl 140 mM): 39.3%
Solubility of Insulin Aspart, % remaining of the original concentration (0.2% phenol + […] m-cresol, pH 6.8, NaCl 50 mM): 98.8%
Solubility of Insulin Aspart, % remaining of the original concentration (0.2% phenol + […] m-cresol, pH 6.8, NaCl 80 mM): 91.8%
Solubility of Insulin Aspart, % remaining of the original concentration (0.2% phenol + […] m-cresol, pH 6.8, NaCl 110 mM): 72.8%
Solubility of Insulin Aspart, % remaining of the original concentration (0.2% phenol + […] m-cresol, pH 6.8, NaCl 140 mM): 50.9%
Solubility of Insulin Aspart, % remaining of the original concentration (0.2% phenol + […] m-cresol, pH 7.0, NaCl 50 mM): 99.1%
Solubility of Insulin Aspart, % remaining of the original concentration (0.2% phenol + […] m-cresol, pH 7.0, NaCl 80 mM): 100.6%
Solubility of Insulin Aspart, % remaining of the original concentration (0.2% phenol + […] m-cresol, pH 7.0, NaCl 110 mM): 99.9%
Solubility of Insulin Aspart, % remaining of the original concentration (0.2% phenol + […] m-cresol, pH 7.0, NaCl 140 mM): 88.9%
Solubility of Insulin Aspart, % remaining of the original concentration (0.2% phenol + […] m-cresol, pH 7.2, NaCl 50 mM): 99.1%
Solubility of Insulin Aspart, % remaining of the original concentration (0.2% phenol + […] m-cresol, pH 7.2, NaCl 80 mM): 100.5%
Solubility of Insulin Aspart, % remaining of the original concentration (0.2% phenol + […] m-cresol, pH 7.2, NaCl 110 mM): 100.0%
Solubility of Insulin Aspart, % remaining of the original concentration (0.2% phenol + […] m-cresol, pH 7.2, NaCl 140 mM): 99.7%
Solubility of Insulin Aspart, % remaining of the original concentration (0.2% phenol + […] m-cresol, pH 7.4, NaCl 50 mM): 99.2%
Solubility of Insulin Aspart, % remaining of the original concentration (0.2% phenol + […] m-cresol, pH 7.4, NaCl 80 mM): 100.6%
Solubility of Insulin Aspart, % remaining of the original concentration (0.2% phenol + […] m-cresol, pH 7.4, NaCl 110 mM): 100.0%
Solubility of Insulin Aspart, % remaining of the original concentration (0.2% phenol + […] m-cresol, pH 7.4, NaCl 140 mM): 99.7%
Solubility of Insulin Aspart, % remaining of the original concentration (0.2% phenol + […] m-cresol, pH 7.6, NaCl 50 mM): 99.2%
Solubility of Insulin Aspart, % remaining of the original concentration (0.2% phenol + […] m-cresol, pH 7.6, NaCl 80 mM): 100.8%
Solubility of Insulin Aspart, % remaining of the original concentration (0.2% phenol + […] m-cresol, pH 7.6, NaCl 110 mM): 100.2%
Solubility of Insulin Aspart, % remaining of the original concentration (0.2% phenol + […] m-cresol, pH 7.6, NaCl 140 mM): 99.8%
Solubility of Insulin Aspart, % remaining of the original concentration ([…] phenol + […] m-cresol, pH 6.6, NaCl 50 mM): 97.9%
Solubility of Insulin Aspart, % remaining of the original concentration ([…] phenol + […] m-cresol, pH 6.6, NaCl 80 mM): 86.3%
Solubility of Insulin Aspart, % remaining of the original concentration ([…] phenol + […] m-cresol, pH 6.6, NaCl 110 mM): 54.4%
Solubility of Insulin Aspart, % remaining of the original concentration ([…] phenol + […] m-cresol, pH 6.6, NaCl 140 mM): 38.3%
Solubility of Insulin Aspart, % remaining of the original concentration ([…] phenol + […] m-cresol, pH 6.8, NaCl 50 mM): 99.8%
Solubility of Insulin Aspart, % remaining of the original concentration ([…] phenol + […] m-cresol, pH 6.8, NaCl 80 mM): 97.9%
Solubility of Insulin Aspart, % remaining of the original concentration ([…] phenol + […] m-cresol, pH 6.8, NaCl 110 mM): 97.5%
Solubility of Insulin Aspart, % remaining of the original concentration ([…] phenol + […] m-cresol, pH 6.8, NaCl 140 mM): 60.5%
Solubility of Insulin Aspart, % remaining of the original concentration ([…] phenol + […] m-cresol, pH 7.0, NaCl 50 mM): 99.7%
Solubility of Insulin Aspart, % remaining of the original concentration ([…] phenol + […] m-cresol, pH 7.0, NaCl 80 mM): 99.3%
Solubility of Insulin Aspart, % remaining of the original concentration ([…] phenol + […] m-cresol, pH 7.0, NaCl 110 mM): 99.3%
Solubility of Insulin Aspart, % remaining of the original concentration ([…] phenol + […] m-cresol, pH 7.0, NaCl 140 mM): 100.2%
Solubility of Insulin Aspart, % remaining of the original concentration ([…] phenol + […] m-cresol, pH 7.2, NaCl 50 mM): 99.1%
Solubility of Insulin Aspart, % remaining of the original concentration ([…] phenol + […] m-cresol, pH 7.2, NaCl 80 mM): 99.2%
Solubility of Insulin Aspart, % remaining of the original concentration ([…] phenol + […] m-cresol, pH 7.2, NaCl 110 mM): 99.2%
Solubility of Insulin Aspart, % remaining of the original concentration ([…] phenol + […] m-cresol, pH 7.2, NaCl 140 mM): 101.1%
Solubility of Insulin Aspart, % remaining of the original concentration ([…] phenol + […] m-cresol, pH 7.4, NaCl 50 mM): 100.0%
Solubility of Insulin Aspart, % remaining of the original concentration ([…] phenol + […] m-cresol, pH 7.4, NaCl 80 mM): 99.6%
Solubility of Insulin Aspart, % remaining of the original concentration ([…] phenol + […] m-cresol, pH 7.4, NaCl 110 mM): 99.5%
Solubility of Insulin Aspart, % remaining of the original concentration ([…] phenol + […] m-cresol, pH 7.4, NaCl 140 mM): 101.1%
Solubility of Insulin Aspart, % remaining of the original concentration ([…] phenol + […] m-cresol, pH 7.6, NaCl 50 mM): 100.1%
Solubility of Insulin Aspart, % remaining of the original concentration ([…] phenol + […] m-cresol, pH 7.6, NaCl 80 mM): 99.7%
Solubility of Insulin Aspart, % remaining of the original concentration ([…] phenol + […] m-cresol, pH 7.6, NaCl 110 mM): 99.4%
Solubility of Insulin Aspart, % remaining of the original concentration ([…] phenol + […] m-cresol, pH 7.6, NaCl 140 mM): 101.1%
